Reference: US20120301468A1 (Bayer, published 2012)

B1: 3ah10 Fab (Fab, V domains shown)
VH: ELVESGGGLVQPGGSLRLSCAASGFTFSSYGISWVRQAPGKGLEWVSSISYSGSNTYYADSVKGRFTISRDNSKNTLYLQMNSLRAEDTAVYYCARMKPMRGYSGAVWGQGTLVTVSS
VL: DIQMTQSPSSLSASVGDRVTITCRASQDISNRLAWYQQKPGKAPKLLIYDANSLQSGVPSRFSGSGSGTDFTLTISSLQPEDFATYYCFQYSGPTFGQGTKVEIK
notes: Only CDRs are tied to the name
B2: 5aa3 full-length human IgG1 (antibody, V domains shown)
VH: QVELVQSGAEVKKPGESLKISCKGSGYSFTGYISWVRQAPGKGLEWMGIIYPGDSYTNYSPSFQGQVTISADKSISTAYLQWSSLKASDTAMYYCARYSGPNWDVMDSWGQGTLVTVSS
VL: DIVLTQPPSVSGAPGQRVTISCSGSSSNIGSYYVNWYQQLPGTAPKLLIYADDKRPSGVPDRFSGSKSGTSASLAITGLQSEDEADYYCQSYDSTKDDSVFGGGTKLTVL
notes: Full-length human IgG1 made from the Fab; Only CDRs are tied to the name
B3: 1aa1 Fab (Fab, V domains shown)
VH: ELVQSGAEVKKPGASVKVSCKASGYTFTTNYMHWVRQAPGQGLEWMGIINPHNGSTSYAQKFQGRVTMTRDTSISTAYMELSSLRSEDTAVYYCARGRYFLMDVWGQGTLVTVSS
VL: DIQMTQSPSSLSASVGDRVTITCRASQNILSYLNWYQQKPGKAPKLLIYAASSLQSGVPSRFSGSGSGTDFTLTISSLQPEDFAVYYCQQYGSVPTFGQGTKVEIK
notes: as for B1
B4: 1aa1 full-length human IgG1 (antibody, V domains shown)
VH: QVELVQSGAEVKKPGASVKVSCKASGYTFTTNYMHWVRQAPGQGLEWMGIINPHNGSTSYAQKFQGRVTMTRDTSISTAYMELSSLRSEDTAVYYCARGRYFLMDVWGQGTLVTVSS
VL: B3 VL
notes: as for B2
B5: 1aa1 immunoconjugate (antibody, human IgG1, V domains shown)
VH: B4 VH
VL: B3 VL
modifications: A cytotoxic drug (MMAE by paragraph 261) is conjugated to the IgG1. The chain and residues of attachment are not stated, and the letters do not carry the drug.
notes: Human IgG1 1aa1 conjugated to a cytotoxic drug; Only CDRs are tied to the name
B6: 3ef2 Fab (Fab, V domains shown)
VH: ELVESGGGLVQPGGSLRLSCAASGFTFSSYGMHWVRQAPGKGLEYVSAISYSSSSTSYADSVKGRFTISRDNSKNTLYLQMNSLRAEDTAVYYCARLSYTGFAVWGQGTLVTVSS
VL: DIELTQPPSVSVAPGQTARISCSGDNLGSYYVHWYQQKPGQAPVLVIYDDNNRPSGIPERFSGSNSGNTATLTISGTQAEDEADYYCQSYDFGKVVFGGGTKLTVL
notes: as for B1
B7: 1e4 Fab (Fab, V domains shown)
VH: ELVESGGGLVQPGGSLRLSCAASGFTFSNNAMNWVRQAPGKGLEWVSGISYDSSKTYYADSVKGRFTISRDNSKNTLYLQMNSLRAEDTAVYYCARLTYTGAYRWGQGTLVTVSS
VL: B6 VL
notes: as for B1
B8: 3ef2 full-length human IgG1 (antibody, V domains shown)
VH: QVELVESGGGLVQPGGSLRLSCAASGFTFSSYGMHWVRQAPGKGLEYVSAISYSSSSTSYADSVKGRFTISRDNSKNTLYLQMNSLRAEDTAVYYCARLSYTGFAVWGQGTLVTVSS
VL: B6 VL
notes: as for B2
B9: 1e4 full-length human IgG1 (antibody, V domains shown)
VH: B7 VH
VL: B6 VL
notes: Full-length human IgG1 made from the Fab (IgG1 constant region PIR J00228); Only CDRs are tied to the name; also called monoclonal IgG1 1e4; anti-MN antibody 1e4
B10: 5a6 Fab (Fab, V domains shown)
VH: ELVQSGAEVKKPGESLKISCKGSGYSFSKYWIGWVRQMPGKGLEWMGIIYPTDSYTRYSPSFQGQVTISADKSISTAYLQWSSLKASDTAMYYCARTHGYYKNGRMDVWGQGTLVTVSS
VL: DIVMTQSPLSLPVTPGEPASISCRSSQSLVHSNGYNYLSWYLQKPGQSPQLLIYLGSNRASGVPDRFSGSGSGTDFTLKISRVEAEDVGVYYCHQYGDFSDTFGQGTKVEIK
notes: as for B1
B11: 3bb2 Fab (Fab, V domains shown)
VH: ELVESGGGLVQPGGSLRLSCAASGFTFSNYGISWVRQAPGKGLEWVSAISYYGSNTYYADSVKGRFTISRDNSKNTLYLQMNSLRAEDTAVYYCARLKGGSGFVWGQGTLVTVSS
VL: DIVMTQSPLSLPVTPGEPASISCRSSQSLVYSNGNTTLSWYLQKPGQSPQLLIYGVSNRASGVPDRFSGSGSGTDFTLKISRVEAEDVGVYYCQQYNSFPRTFGQGTKVEIK
notes: as for B1
B12: 3ee9 Fab (Fab, V domains shown)
VH: ELVESGGGLVQPGGSLRLSCAASGFTFSSYGMSWVRQAPGKGLEWVSGISSLGSTTYYADSVKGRFTISRDNSKNTLYLQMNSLRAEDTAVYYCARTGSPGTFMHGDHWGQGTLVTVSS
VL: DIQMTQSPSSLSASVGDRVTITCRASQDINNYLSWYQQKPGKAPKLLIYGASNLQSGVPSRFSGSGSGTDFTLTISSLQPEDFAVYYCQQYYGRPTTFGQGTKVEIK
notes: only the CDRs are tied
B13: 3ee9/MMAE (3ee9 human IgG1 conjugated to monomethylauristatin E) (antibody, V domains shown)
VH: QVELVESGGGLVQPGGSLRLSCAASGFTFSSYGMSWVRQAPGKGLEWVSGISSLGSTTYYADSVKGRFTISRDNSKNTLYLQMNSLRAEDTAVYYCARTGSPGTFMHGDHWGQGTLVTVSS
VL: DIQMTQSPSSLSASVGDRVTITCRASQDINNYLSWYQQKPGKAPKLLIYGASNLQSGVPSRFSGSGSGTDFTLTISSLQPEDFAVYYCQQYYGRPTTFGQGTKVEIKR
modifications: Monomethylauristatin E (MMAE) is conjugated to the antibody through a linker (FIG. 9). The chain and residues of attachment are not stated, and the letters do not carry the drug.
notes: Only CDRs are tied to the name; also called BAY 79-4620; 3ee9-IC
B14: 3ee9 full-length human IgG1 (antibody, V domains shown)
VH: B13 VH
VL: B13 VL
notes: Only CDRs are tied to the name; also called unconjugated antibody 3ee9; antibody portion of 3ee9/MMAE
B15: 3ab4 Fab (Fab, V domains shown)
VH: ELVESGGGLVQPGGSLRLSCAASGFTFSSYGISWVRQAPGKGLEWVSGISYSGSSTYYADSVKGRFTISRDNSKNTLYLQMNSLRAEDTAVYYCARLKPYRHKNGWFDYWGQGTLVTVSS
VL: DIQMTQSPSSLSASVGDRVTITCRASQNISNYLNWYQQKPGKAPKLLIHKVSNLQSGVPSRFSGSGSGTDFTLTISSLQPEDFAVYYCLQYDDFPRTFGQGTKVEIK
notes: as for B1

Assays:
[1] = target: T1, human MN protein, entire extra-cellular domain with a C-terminal histag, expressed in HKB-11 cells (human, UniProt Q16790 38-414); test: BIAcore surface plasmon resonance; Fab captured on immobilized anti-human-Fab IgG, purified human MN (HKB-11) as analyte; 1:1 Langmuir fit
[2] = target: T1, human MN protein, entire extra-cellular …; test: SPR, BIAcore 3000, IgG captured by anti-human IgG Fc, MN as analyte, 1:1 Langmuir fit
[3] = target: T1, human MN protein, entire extra-cellular …; test: BIAcore surface plasmon resonance; IgG captured on immobilized goat anti-human IgG Fc, purified human MN (HKB-11) as analyte; 1:1 Langmuir fit
[4] = target: T2, MN protein on the surface of MN-expressing (MN+) cells (PC3 mm2, MaTu) (human, UniProt Q16790 38-459); test: FACS on PC3mm2 (MN+) cells with DLD (MN-) cells as negative cells; traces not labelled on the sheet
[5] = target: T1, human MN protein, entire extra-cellular …; test: Biacore (SPR), purified MN protein
[6] = target: T2, MN protein on the surface of …; test: cell-based or functional assay
[7] = target: T1, human MN protein, entire extra-cellular …; test: Biacore (SPR), purified MN protein; remark: listed apart in the source

Binder	Kd [1] [nM]	Kd [2] [nM]	also measured
B1	16	–	–
B2	–	1	–
B3	0.15	–	–
B4	–	27	Kd [3]: 49 nM
B5	–	–	binding result [4]: binds
B6	4.1	–	–
B7	1.4	–	–
B8	–	6	–
B9	–	5	Kd [3]: 1 nM
B10	3.4	–	–
B11	27	–	–
B12	16	–	–
B13	–	–	Kd [5]: 3.6 nM; Cytotoxicity: MN+/MN- (ec50) [6]: 50 nM
B14	–	4	Kd [3]: 5.9 nM; Kd [7]: 3.6 nM
B15	50	–	–
